The source of these data is US20240228562A1 (Pieris, published 2024).

Assay [1] deals with T1, CTGF expressed by TGF-β1-stimulated normal human lung fibroblasts (NHLFs) (human, UniProt P29279 27-349).
T1 construct: whole, on cells; Cells grown under conditions that facilitate pseudo-3D extracellular matrix deposition; also called CTGF-expressing NHLFs
T1 sequence (looked up): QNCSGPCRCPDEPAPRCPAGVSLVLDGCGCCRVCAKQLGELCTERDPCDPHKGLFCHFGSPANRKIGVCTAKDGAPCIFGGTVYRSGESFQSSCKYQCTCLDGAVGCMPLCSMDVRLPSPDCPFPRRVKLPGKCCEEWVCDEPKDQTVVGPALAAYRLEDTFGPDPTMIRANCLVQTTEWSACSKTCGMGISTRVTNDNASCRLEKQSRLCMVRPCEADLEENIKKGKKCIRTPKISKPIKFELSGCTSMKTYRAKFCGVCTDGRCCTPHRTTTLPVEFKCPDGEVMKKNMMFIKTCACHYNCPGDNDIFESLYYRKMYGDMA
The assay is described as follows: immunofluorescence staining of the lipocalin scaffold (AlexaFluor647 secondary antibody) on NHLFs incubated 24 h with the construct and 10 ng/ml TGF-β1; signal normalised to the NGAL control.

Another assay deals with T2, huNOV (human, UniProt P48745 32-357, limits assumed).
T2 construct: also called human NOV (CCN3)
T2 sequence (looked up): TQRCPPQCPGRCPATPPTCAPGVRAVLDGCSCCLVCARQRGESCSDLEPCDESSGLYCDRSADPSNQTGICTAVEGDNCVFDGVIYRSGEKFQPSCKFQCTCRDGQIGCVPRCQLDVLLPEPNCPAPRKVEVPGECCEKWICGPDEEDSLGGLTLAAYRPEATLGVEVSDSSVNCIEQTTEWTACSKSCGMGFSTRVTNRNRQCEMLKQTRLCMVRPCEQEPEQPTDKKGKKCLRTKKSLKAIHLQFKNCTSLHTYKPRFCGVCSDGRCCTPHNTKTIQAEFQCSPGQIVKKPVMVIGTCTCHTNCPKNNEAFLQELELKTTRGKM
The assay can be described thus: ELISA, coated CCN protein. How it is done: (§1) Binding of muteins to closely related proteins of CTGF was tested by an ELISA assay. In detail, a 384-well plate suitable for fluorescence measurements (Greiner FLUOTRAC™ 600, black flat bottom, high-binding) was coated with 20 μl of human CTGF or the other members of the CCN protein family at a concentration of 1 μg/ml in PBS over night at 4° C. After washing with PBS with 0.05% Tween 20, wells were blocked with 100 μl blocking buffer containing 0.1% Tween 20 and 2% BSA (PBS-T/BSA) for 1 h at room temperature. 20 μl of serially diluted muteins starting at 1000 nM were incubated in PBS-T/BSA for 1 h at room temperature (RT).
(§2) The residual supernatants were discarded and 20 μl HRP-labeled anti-NGAL or anti-Strep-Tag antibody was added at a predetermined optimal concentration in PBS-T/BSA and incubated for 1 h at RT. After washing, 20 μl fluorogenic HRP substrate (QuantaBlu, Thermo) was added to each well, and the reaction was allowed to proceed for 2 to 60 minutes. The fluorescence intensity of every well on the plate was read using a fluorescence microplate reader (Tecan). When the signal for human CTGF approached saturation, the cross reactivity to the other proteins was assessed.
On the technique in general: In an ELISA, binding on a coated surface is turned into a signal by an enzyme label.

Another assay concerns the target T3, huWISP-1 (human, UniProt O95388 23-367, limits assumed).
T3 construct: also called human WISP-1 (CCN4)
T3 sequence (looked up): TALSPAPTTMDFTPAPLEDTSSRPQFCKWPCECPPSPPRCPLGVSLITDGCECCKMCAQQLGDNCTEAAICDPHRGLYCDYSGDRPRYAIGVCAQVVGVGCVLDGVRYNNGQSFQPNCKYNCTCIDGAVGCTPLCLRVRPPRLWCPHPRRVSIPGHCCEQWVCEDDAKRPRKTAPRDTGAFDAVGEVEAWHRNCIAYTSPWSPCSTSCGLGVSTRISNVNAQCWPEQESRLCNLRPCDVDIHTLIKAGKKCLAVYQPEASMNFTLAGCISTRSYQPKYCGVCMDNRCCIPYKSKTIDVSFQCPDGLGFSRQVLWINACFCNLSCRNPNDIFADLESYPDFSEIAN
The assay can be described thus: ELISA, coated CCN protein. As to the method: as §1, §2

The target of the next assay is T4, huWISP-2 (human, UniProt O76076 24-250, limits assumed).
T4 construct: also called human WISP-2 (CCN5)
T4 sequence (looked up): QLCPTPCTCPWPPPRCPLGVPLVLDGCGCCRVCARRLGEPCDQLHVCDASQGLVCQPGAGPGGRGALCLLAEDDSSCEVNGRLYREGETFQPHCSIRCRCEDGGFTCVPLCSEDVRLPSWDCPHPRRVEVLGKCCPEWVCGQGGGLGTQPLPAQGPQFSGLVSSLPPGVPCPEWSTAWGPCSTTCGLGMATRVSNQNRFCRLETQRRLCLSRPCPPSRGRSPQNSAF
The assay is described as follows: ELISA, coated CCN protein. How it is done: as §1, §2

The next assay concerns the target T5, huCYR61 (human, UniProt O00622 25-381, limits assumed).
T5 construct: also called human CYR61 (CCN1)
T5 sequence (looked up): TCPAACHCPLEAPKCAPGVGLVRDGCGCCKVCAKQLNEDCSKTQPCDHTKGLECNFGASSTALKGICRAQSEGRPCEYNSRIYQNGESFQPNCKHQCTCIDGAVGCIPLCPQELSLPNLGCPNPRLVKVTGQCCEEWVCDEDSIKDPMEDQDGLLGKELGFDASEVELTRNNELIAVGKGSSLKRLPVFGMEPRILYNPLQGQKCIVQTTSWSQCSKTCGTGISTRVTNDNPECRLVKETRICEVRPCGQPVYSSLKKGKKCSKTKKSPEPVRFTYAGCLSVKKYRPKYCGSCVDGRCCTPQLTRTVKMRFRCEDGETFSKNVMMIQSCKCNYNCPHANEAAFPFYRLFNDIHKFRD
The assay is described as follows: ELISA, coated CCN protein. How it is done:
as §1, §2

The target of another assay is T6, huWISP-3 (human, UniProt O95389 24-354, limits assumed).
T6 construct: also called human WISP-3 (CCN6)
T6 sequence (looked up): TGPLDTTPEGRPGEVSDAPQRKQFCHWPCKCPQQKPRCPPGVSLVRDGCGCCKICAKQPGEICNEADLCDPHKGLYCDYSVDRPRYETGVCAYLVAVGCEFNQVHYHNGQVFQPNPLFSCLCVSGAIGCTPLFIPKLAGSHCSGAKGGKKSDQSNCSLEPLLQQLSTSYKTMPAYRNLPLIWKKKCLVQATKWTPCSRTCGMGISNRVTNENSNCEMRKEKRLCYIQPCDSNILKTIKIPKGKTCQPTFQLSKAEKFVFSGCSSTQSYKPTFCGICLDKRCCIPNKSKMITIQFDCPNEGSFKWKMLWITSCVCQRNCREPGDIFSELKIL
The assay is described as follows: ELISA, coated CCN protein. As to the method: as §1, §2

Assay [2] has as its target T7, recombinant human CTGF-Fc protein (Creative Biomart) (human).
T7 construct: Bought; also called human CTGF with a human IgG1 Fc Tag
The assay can be described thus: SPR (Biacore). In outline:
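Lipocalin muteins injected at 25 °C over CTGF either Fc-tagged and captured by anti-human IgG-Fc (0.25-2.5 μg/mL in HBS-EP+, 180 s) or amine-coupled directly to a CM5 chip. Association 180 s, dissociation 900-3600 s, flow 30 μL/min.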
(In SPR one partner is held on a chip, and binding of the other changes the refractive index at the surface.)

For assay [3], the target named is T8, recombinant rat CTGF protein (R&D Systems) (rat, UniProt Q9R1E9 25-347).
T8 construct: Bought; also called rCTGF
T8 sequence: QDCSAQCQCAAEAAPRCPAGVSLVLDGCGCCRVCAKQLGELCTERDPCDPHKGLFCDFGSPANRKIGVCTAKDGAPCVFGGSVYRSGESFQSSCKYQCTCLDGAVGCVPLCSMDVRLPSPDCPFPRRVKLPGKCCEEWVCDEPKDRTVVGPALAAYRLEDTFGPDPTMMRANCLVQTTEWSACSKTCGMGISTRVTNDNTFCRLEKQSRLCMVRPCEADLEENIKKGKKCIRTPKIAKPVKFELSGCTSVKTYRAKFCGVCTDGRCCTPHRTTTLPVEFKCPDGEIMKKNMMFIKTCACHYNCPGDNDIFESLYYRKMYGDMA
The assay can be described thus: SPR (Biacore); B = binding without determination of kinetics constants. How it is done: The binding of exemplary lipocalin muteins to human (Creative Biomart), cynomolgus, rat (R&D Systems) and mouse CTGF (Abbexa) was determined by SPR using a Biacore instrument (Cytiva, formerly GE Healthcare). Some targets were fused to a human IgG1 Fc tag, and captured via the anti-human IgG antibody kit, others were directly immobilized.
For some measurements, human CTGF with a human IgG1 Fc Tag or rat or murine CTGF without a tag were directly immobilized to a CM5 Chip. The carboxyl groups on the chip were activated using 1-ethyl-3-(3-dimethylaminopropyl)-carbodiimide (EDC) and N-hydroxysuccinimide (NHS). […] Residual non-reacted NHS-esters were blocked by passing a solution of 1 M ethanolamine across the surface. The reference channel was activated/deactivated. For the capture setting, targets with an IgG Fc Tag at 0.25-2.5 μg/mL in HBS-EP+ buffer were captured by the anti-human IgG-Fc antibody at the chip surface for 180 s at a flow rate of 10 μL/min.
The binding assay was carried out with a contact time of 180 s, a dissociation time of 900-3600 s and a flow rate of 30 μL/min. All measurements were performed at 25° C. […] For the directly immobilized targets, the same regeneration conditions were used. Prior to the protein measurements, three startup cycles were performed for conditioning purposes.

T7 sequence (chain, as listed by the source limits assumed): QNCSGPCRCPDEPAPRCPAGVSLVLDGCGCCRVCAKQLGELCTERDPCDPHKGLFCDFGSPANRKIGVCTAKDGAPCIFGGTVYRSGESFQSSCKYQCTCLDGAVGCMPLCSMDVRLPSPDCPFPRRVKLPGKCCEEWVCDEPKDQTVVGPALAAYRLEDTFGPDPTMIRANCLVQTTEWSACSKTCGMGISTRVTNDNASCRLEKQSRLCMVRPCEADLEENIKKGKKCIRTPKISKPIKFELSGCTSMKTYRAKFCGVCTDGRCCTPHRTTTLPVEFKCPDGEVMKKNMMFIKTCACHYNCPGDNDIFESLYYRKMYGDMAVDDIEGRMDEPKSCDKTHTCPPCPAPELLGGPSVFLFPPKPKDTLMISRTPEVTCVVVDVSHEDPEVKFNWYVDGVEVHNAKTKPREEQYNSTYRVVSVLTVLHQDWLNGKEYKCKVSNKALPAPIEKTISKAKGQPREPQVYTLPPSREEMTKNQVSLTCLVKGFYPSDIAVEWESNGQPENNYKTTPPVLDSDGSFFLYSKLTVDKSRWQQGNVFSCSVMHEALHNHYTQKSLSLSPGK

B1: lipocalin mutein of SEQ ID NO: 23 (designed binder)
chain: QDSTSDLIPAPPLSKVPLQQNFQDNQFQGKWYVVGVAGNAILRPDKQPAKMFATIYELKEDKSYDVTSVRFEAKSCKYTIKTFVPGSQPGEFTSGQIKSAPGQTSTLVRVVSTNYNQHAMVFFKHVSQNREIFVITLYGRTKELTSELKENFIRFSKSLGLPENHIVFPVPIDQCIDG
notes: also called hNGAL mutein
Consider B1, for which the binding result was “binds” in assay [1]; “no binding (tested: dilutions starting at 1000 nM)” with huNOV; “no binding (tested: dilutions starting at 1000 nM)” with huWISP-1; “no binding (tested: dilutions starting at 1000 nM)” in the assay with huWISP-2; “no binding (tested: dilutions starting at 1000 nM)” in the assay with huCYR61; “no binding (tested: dilutions starting at 1000 nM)” with huWISP-3. Besides, the Kd – broadly, the equilibrium constant for the complex coming apart – in assay [2] worked out at 0.077 nM. In assay [2], the koff (in general, a measure of how fast the partners let go of each other) is 9.42e-06 s⁻¹. Moreover, the kon – broadly, the second-order rate constant of association – in assay [2] is 122000 M⁻¹ s⁻¹.

B2: lipocalin mutein of SEQ ID NO: 6 (designed binder)
chain: QDSTSDLIPAPPLSKVPLQQNFQDNQFQGKWYVVGRAGNNQLREDKSPPKMWATIYELKEDKSYDVTHVHFSTKKCRYIIDTFVPGSQPGEFTAGAIKSGPGLTSPLVRVVSTNYNQHAMVFFKWVTQNREWFTITLYGRTKELTSELKENFIRFSKSLGLPENHIVFPVPIDQCIDG
notes: also called hNGAL mutein; not shown: C-terminal His-tag
Regarding B2, the binding result in assay [3] is “binds”. In assay [2], the Kd is 0.514 nM, the off-rate constant (koff) came out at 0.000149 s⁻¹ and the kon came out at 290000 M⁻¹ s⁻¹.
